Assay results: patent publication US20160144003A1 (Scripps Research, published 2016)
Residue numbers refer to the chain shown, from its start. Numbers in names are those of the source.

T1: human GlyRS P234KY mutant (human, UniProt P41250 55-739)
T1 sequence: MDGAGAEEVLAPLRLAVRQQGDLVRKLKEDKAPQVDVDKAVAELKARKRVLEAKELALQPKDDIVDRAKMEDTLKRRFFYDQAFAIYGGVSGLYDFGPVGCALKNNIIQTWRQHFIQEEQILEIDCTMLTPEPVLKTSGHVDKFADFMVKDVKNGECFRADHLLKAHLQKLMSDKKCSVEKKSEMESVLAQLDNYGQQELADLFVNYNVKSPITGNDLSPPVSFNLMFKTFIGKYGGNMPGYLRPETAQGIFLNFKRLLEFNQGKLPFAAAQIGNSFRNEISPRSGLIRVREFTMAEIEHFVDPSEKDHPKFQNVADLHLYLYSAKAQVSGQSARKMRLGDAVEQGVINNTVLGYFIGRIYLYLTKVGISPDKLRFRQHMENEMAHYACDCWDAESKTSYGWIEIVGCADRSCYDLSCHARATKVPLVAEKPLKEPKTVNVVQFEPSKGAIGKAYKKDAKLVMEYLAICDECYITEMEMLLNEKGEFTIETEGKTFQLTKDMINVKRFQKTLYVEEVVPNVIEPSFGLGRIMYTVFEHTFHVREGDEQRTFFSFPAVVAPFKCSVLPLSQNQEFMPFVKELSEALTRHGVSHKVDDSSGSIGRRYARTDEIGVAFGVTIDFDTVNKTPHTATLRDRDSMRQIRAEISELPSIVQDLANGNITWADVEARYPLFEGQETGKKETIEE

B1: recombinant neuropilin-1/Fc extracellular domain chimeric protein (R&D systems) (Fc fusion)
chain: FRSDKCGGTIKIENPGYLTSPGYPHSYHPSEKCEWLIQAPEPYQRIMINFNPHFDLEDRDCKYDYVEVIDGENEGGRLWGKFCGKIAPSPVVSSGPFLFIKFVSDYETHGAGFSIRYEIFKRGPECSQNYTAPTGVIKSPGFPEKYPNSLECTYIIFAPKMSEIILEFESFDLEQDSNPPGGVFCRYDRLEIWDGFPEVGPHIGRYCGQKTPGRIRSSSGILSMVFYTDSAIAKEGFSANYSVLQSSISEDFKCMEALGMESGEIHSDQITASSQYGTNWSVERSRLNYPENGWTPGEDSYREWIQVDLGLLRFVTAVGTQGAISKETKKKYYVKTYRVDISSNGEDWITLKEGNKAIIFQGNTNPTDVVFGVFPKPLITRFVRIKPASWETGISMRFEVYGCKITDYPCSGMLGMVSGLISDSQITASNQGDRNWMPENIRLVTSRTGWALPPSPHPYINEWLQVDLGDEKIVRGVIIQGGKHRENKVFMRKFKIAYSNNGSDWKMIMDDSKRKAKSFEGNNNYDTPELRAFTPLSTRFIRIYPERATHSGLGLRMELLGCEVEVPTAGPTTPNGNPVDECDDDQANCHSGTGDDFQLTGGTTVLATEKPTIIDSTIQSEFPTYGFNCEFGWGSHKTFCHWEHDSHAQLRWRVLTSKTGPIQDHTGDGNFIYSQADENQKGKVARLVSPVVYSQSSAHCMTFWYHMSGSHVGTLRVKLHYQKPEEYDQLVWMVVGHQGDHWKEGRVLLHKSLKLYQVIFEGEIGKGNLGGIAVDDISINNHIPQEDCAKPTDLDKKNTEIKIDETGSTPGYEEGKGDKNISRKPGNVLKTLDPI
B2: wild-type human glycyl-tRNA synthetase (GlyRS) (enzyme)
chain: MDGAGAEEVLAPLRLAVRQQGDLVRKLKEDKAPQVDVDKAVAELKARKRVLEAKELALQPKDDIVDRAKMEDTLKRRFFYDQAFAIYGGVSGLYDFGPVGCALKNNIIQTWRQHFIQEEQILEIDCTMLTPEPVLKTSGHVDKFADFMVKDVKNGECFRADHLLKAHLQKLMSDKKCSVEKKSEMESVLAQLDNYGQQELADLFVNYNVKSPITGNDLSPPVSFNLMFKTFIGPGGNMPGYLRPETAQGIFLNFKRLLEFNQGKLPFAAAQIGNSFRNEISPRSGLIRVREFTMAEIEHFVDPSEKDHPKFQNVADLHLYLYSAKAQVSGQSARKMRLGDAVEQGVINNTVLGYFIGRIYLYLTKVGISPDKLRFRQHMENEMAHYACDCWDAESKTSYGWIEIVGCADRSCYDLSCHARATKVPLVAEKPLKEPKTVNVVQFEPSKGAIGKAYKKDAKLVMEYLAICDECYITEMEMLLNEKGEFTIETEGKTFQLTKDMINVKRFQKTLYVEEVVPNVIEPSFGLGRIMYTVFEHTFHVREGDEQRTFFSFPAVVAPFKCSVLPLSQNQEFMPFVKELSEALTRHGVSHKVDDSSGSIGRRYARTDEIGVAFGVTIDFDTVNKTPHTATLRDRDSMRQIRAEISELPSIVQDLANGNITWADVEARYPLFEGQETGKKETIEE
notes: Used as a GlyRS-His fusion protein in the neuropilin assays; also called WT GlyRS; WT; not shown: His tag
B3: human GlyRS G598A mutant (enzyme)
chain: B2 chain with G598A
notes: Only in the dimerization measurement (sedimentation equilibrium); also called G598A GlyRS; not shown: the tag is not described
B4: human GlyRS L129P mutant (enzyme)
chain: B2 chain with L129P
notes: also called L129P GlyRS; L129P-His; not shown: His tag
B5: human GlyRS G526R mutant (enzyme)
chain: B2 chain with G526R
notes: GlyRS-His fusion protein in the pull-down assay; also called G526R GlyRS; not shown: His tag
B6: human GlyRS S581L mutant (enzyme)
chain: B2 chain with S581L
notes: also called S581L GlyRS; not shown: His tag
B7: human GlyRS G240R mutant (enzyme)
chain: B2 chain with G240R
notes: GlyRS-His fusion protein in the pull-down and cell assays; also called G240R GlyRS; not shown: His tag

What was measured:
human GlyRS L129P mutant = target: B4; experiment: bio-layer interferometry (Octet RED), NRP1-Fc on Protein G biosensors, global 1:1 fit of five concentrations
Method: FIGS. 15A-15C show the binding affinity between various GlyRS polypeptides and neuropilin-1 (NRP-1). In FIG. 15A, the binding between NRP-1 and GlyRS (wild-type (WT), CMT-associated mutant L129P, and CMT-associated mutant P234KY) at 1 μM was compared by bio-layer interferometry in Octet RED system. No binding was detected between NRP-1 and WT GlyRS, but strong binding was detected between NRP-1 and each of the CMT-associated mutants L129P and P234KY.
The binding constants between GlyRS CMT mutants (L129P and P234KY) and Neuropilin-1 (NRP1) were measured using Octet RED (ForteBio, Inc.). Octet RED utilizes bio-layer interferometry (BLI) technology that enables real-time analysis of protein-protein interactions on the surface of a fiber optic biosensor. The protein of interest is firstly immobilized on the biosensor and then exposed to the protein analyte in solution. The binding of two proteins changes the optical properties of the biosensor, leading to a shift in the wavelength of reflected light. This shift in wavelength allows the measurement of the determination of the binding constant.

[1] = target: T1, human GlyRS P234KY mutant; experiment: bio-layer interferometry (Octet RED), NRP1-Fc on Protein G biosensors, global 1:1 fit of three concentrations
[2] = target: the molecule itself; experiment: sedimentation equilibrium AUC, monomer-dimer self-association
Method: FIGS. 8A-8F show sedimentation equilibrium analysis of WT and CMT-causing mutant human GlyRS proteins. Three cells containing different concentrations of each protein sample were centrifuged at 9000 rpm (solid curved line), 14000 rpm (mixed-dash curved line), and 19000 rpm (dash curved line). Absorbance data for each cell was collected at 280 nm and 230 nm wavelength. The meniscus (vertical dot-dash line) in each cell was set manually, while the bottom (vertical dash line) was allowed to float. Data within the fit limits (vertical solid lines) was globally fitted to the monomer-dimer self-association model in SEDPHAT. Data beyond approximately 1.5 absorbance was omitted in case of non-linearity of the detection instrumentation. The fits for the 9000, 14000, and 19000 rpm data are represented by the solid, mixed dash, and dash lines respectively.
WT and mutant GlyRSs were cloned and expressed as described (see Xie et al., Acta Crystallogr Sect F Struct Biol Cryst Commun 62:1243-1246, 2006), and purified to more than 99% homogeneity in three steps: nickel affinity, Mono Q and size exclusion chromatography. Sedimentation equilibrium experiments were performed in a Beckman Optima XL-1 analytical ultracentrifuge with integrated optical systems. All protein samples (0.5 μM, 1.25 μM, 2.5 μM) were prepared in DPBS buffer (2.67 mM potassium chloride, 1.47 mM potassium phosphate monobasic, 137.93 mM sodium chloride and 8.06 mM sodium phosphate dibasic, pH 7.2) and purified by size exclusion chromatography immediately prior to centrifugation. The buffer density and viscosity, and the protein partial specific volume were determined by SEDPHAT (see Lebowitz et al., Protein Sci. 11:2067-2079, 2002). Samples (180 μL) in two-channel cells were centrifuged in a Beckman An-60 Ti rotor at speeds of […] at 4° C. Equilibrium was reached after 36 hours for each speed and verified by comparison with a second scan taken every 6 hours. Data was collected at 280 nm and […]. Data sets consisting of 18 curves per protein (3 concentrations, 3 rotor speeds and 2 wavelengths each) were analyzed by global fitting to the monomer-dimer self-association model using the program SEDPHAT (Id.).

[3] = target: T2, GFP-neuropilin (NRP1) fusion protein on transfected cells; experiment: cell counts of confocal images, N2a cells expressing GFP-NRP1 incubated with GlyRS
T2 construct: whole, on cells; also called GFP-NRP1; NRP1-EGFP
Method: Confocal microscopy analysis was performed to assess the influence of GlyRS and CMT-associated GlyRS mutants on neuropilin-mediated neurite outgrowth. Mouse neuroblastoma N2a cells were transfected with either control pEGFP or NRP1-EGFP. After 24 hours, the cells were plated onto Fibronectin coated coverslips. Then N2a cells were then incubated with or without 200 nM wild-type GlyRS or CMT-associated GlyRS mutants (L129P, G240R, G526R) at 4° C. for 1 hour. Cells were then washed three times with DPBS buffer and fixed with 4% formaldehyde. The coverslips were mounted with Prolong Gold Antifade Reagent with DAPI (invitrogen) at 25° C. for overnight. Images were then taken using the Bio-Rad (Zeiss) Radiance 2100 Rainbow laser scanning confocal microscope (LSCM).

T2 sequence (O14786 22-923): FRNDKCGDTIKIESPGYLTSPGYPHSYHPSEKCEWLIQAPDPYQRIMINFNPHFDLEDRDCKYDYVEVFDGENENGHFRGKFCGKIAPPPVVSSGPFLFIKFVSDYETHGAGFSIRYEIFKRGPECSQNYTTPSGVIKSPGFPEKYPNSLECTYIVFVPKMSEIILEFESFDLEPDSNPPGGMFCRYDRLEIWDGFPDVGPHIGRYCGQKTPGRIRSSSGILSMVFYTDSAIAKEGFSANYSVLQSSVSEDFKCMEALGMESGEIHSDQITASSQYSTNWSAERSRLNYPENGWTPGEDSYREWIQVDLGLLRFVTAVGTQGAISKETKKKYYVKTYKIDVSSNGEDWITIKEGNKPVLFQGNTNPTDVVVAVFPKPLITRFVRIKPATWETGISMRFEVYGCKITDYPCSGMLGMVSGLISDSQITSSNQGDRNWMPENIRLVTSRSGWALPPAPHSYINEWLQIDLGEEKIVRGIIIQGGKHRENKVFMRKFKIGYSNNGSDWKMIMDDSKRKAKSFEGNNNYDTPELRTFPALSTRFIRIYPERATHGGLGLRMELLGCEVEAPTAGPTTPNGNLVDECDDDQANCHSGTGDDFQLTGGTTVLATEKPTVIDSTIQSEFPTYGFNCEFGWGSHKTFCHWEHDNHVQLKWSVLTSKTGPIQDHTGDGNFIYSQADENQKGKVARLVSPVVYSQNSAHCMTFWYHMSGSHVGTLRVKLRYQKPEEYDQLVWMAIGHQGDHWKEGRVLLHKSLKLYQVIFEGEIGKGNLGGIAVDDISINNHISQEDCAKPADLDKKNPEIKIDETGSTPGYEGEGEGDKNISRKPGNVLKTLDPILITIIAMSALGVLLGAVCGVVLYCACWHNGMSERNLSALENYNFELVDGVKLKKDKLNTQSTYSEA

Kd (human GlyRS L129P mutant) [nM] | Kd [1] [nM] | Cell number % [3] [%] | Binder | Kd [2] [nM] | fold increase in Kd of dimerization relative to WT GlyRS [2] [fold] | fold decrease in Kd of dimerization relative to WT GlyRS [2] [fold]
36.8 | 162 | – | B1 | – | – | –
– | – | 8.6 | B2 | 560 | – | –
– | – | – | B3 | 390 | – | –
– | – | 37.7 | B4 | 41000 | 73 | –
– | – | 20.7 | B5 | – | – | 3 to 4
– | – | – | B6 | 190 | – | 3 to 4
– | – | 42 | B7 | 11000 | 20 | –
